In IntAct's records for PubMed 24880343:

Target: pan3_drome PAN3 (UniProt Q95RR8)
Sequence (Q95RR8 whole entry): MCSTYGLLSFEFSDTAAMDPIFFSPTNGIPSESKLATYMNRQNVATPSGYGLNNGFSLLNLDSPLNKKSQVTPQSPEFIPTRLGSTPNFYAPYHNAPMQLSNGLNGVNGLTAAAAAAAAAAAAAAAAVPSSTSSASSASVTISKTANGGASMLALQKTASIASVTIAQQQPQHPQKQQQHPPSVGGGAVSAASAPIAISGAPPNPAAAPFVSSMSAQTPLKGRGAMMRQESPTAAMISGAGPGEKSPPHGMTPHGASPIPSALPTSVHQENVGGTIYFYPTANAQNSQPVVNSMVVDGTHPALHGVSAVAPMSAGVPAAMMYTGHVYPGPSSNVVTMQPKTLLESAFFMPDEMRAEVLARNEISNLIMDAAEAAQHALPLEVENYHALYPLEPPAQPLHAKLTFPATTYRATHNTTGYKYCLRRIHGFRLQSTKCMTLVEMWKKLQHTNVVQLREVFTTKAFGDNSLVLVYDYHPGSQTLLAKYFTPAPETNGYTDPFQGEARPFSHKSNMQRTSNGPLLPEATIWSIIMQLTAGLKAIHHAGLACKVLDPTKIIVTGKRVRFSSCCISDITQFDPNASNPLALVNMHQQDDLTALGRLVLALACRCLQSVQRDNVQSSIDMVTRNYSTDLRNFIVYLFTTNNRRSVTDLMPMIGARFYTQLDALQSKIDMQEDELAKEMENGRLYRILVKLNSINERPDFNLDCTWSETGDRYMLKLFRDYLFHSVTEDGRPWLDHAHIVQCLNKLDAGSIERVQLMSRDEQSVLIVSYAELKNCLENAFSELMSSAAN

PAN2-PAN3 deadenylation complex catalytic subunit PAN2 (Drosophila melanogaster (Fruit fly)), A1Z7K9 T97R;H102G, sequence (A1Z7K9 whole entry T97R/H102G, one chain of several): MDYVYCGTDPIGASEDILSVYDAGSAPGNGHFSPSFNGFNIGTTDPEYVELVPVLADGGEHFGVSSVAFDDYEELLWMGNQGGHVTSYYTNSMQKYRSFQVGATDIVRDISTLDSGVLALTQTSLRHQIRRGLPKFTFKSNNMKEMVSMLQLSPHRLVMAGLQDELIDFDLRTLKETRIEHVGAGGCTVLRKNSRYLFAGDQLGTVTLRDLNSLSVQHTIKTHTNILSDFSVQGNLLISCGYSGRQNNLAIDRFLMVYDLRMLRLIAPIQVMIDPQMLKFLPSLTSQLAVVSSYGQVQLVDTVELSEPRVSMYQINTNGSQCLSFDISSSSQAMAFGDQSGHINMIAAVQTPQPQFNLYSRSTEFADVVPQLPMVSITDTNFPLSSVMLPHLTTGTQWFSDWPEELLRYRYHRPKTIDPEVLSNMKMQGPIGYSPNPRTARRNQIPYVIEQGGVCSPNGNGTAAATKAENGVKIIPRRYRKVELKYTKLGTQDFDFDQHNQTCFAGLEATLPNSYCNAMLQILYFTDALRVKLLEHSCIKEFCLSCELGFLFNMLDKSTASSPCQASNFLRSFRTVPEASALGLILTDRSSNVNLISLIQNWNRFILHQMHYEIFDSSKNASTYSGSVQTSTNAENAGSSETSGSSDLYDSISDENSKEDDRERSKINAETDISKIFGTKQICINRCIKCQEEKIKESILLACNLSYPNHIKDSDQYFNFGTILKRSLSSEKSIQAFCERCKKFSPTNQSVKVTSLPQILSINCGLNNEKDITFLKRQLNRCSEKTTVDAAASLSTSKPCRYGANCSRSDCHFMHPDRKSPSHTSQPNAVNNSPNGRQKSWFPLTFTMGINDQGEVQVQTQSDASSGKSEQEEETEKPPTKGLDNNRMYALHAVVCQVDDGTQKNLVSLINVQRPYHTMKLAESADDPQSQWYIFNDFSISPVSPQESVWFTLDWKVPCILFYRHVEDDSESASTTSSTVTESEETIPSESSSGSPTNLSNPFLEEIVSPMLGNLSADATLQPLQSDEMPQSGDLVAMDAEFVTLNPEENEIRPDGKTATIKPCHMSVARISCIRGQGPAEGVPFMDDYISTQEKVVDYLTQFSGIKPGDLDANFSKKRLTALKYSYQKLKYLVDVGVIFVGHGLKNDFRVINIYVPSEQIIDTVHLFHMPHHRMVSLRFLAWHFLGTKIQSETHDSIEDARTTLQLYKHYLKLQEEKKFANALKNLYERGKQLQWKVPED

## PAN2-PAN3 deadenylation complex catalytic subunit PAN2 (Drosophila melanogaster (Fruit fly)), A1Z7K9 T97R;H102G
  effect of a mutation on the interaction: disrupting interaction strength
